B1: antibody WS6 (IgG) (antibody, V domains shown)
VH: EVQFQQSGTVLARPGASVKMSCKASGYTFTNYWIHWVKQRPGQGLEYIGGTYPGNGDTTYNQKFKGKAKVTAVTPTSTAYMDLSSLTNEDSAVYYCTRTGSYFDYWGQGTTLTVSS
VL: QIVLTQSPAIMSASPGEKVTISCSATSSVSYIYWYQQRPGSSPKPWIYRTSNLASGVPVRFSGSGSGTSYSLTISNMEAEDAATYYCQQYQSYPPTFGAGTKLELK
notes: also called mAb WS6
B2: antigen-binding fragment (Fab) of WS6 (Fab, V domains shown)
VH: B1 VH
VL: B1 VL
notes: also called Fab WS6; WS6 Fab; source: generated from the mAb with the Pierce Fab kit

What was measured:
[1] = biological target: hCoV-HKU1 prefusion-stabilized spike (S2P) (hCoV-HKU1 isolate N1 (AAT98580.1), UniProt Q5MQD0, stabilised); test: ELISA; details: both partners purified
[2] = biological target: hCoV-OC43 prefusion-stabilized spike (S2P) (hCoV-OC43 (AAT84354.1), UniProt P36334, stabilised); test: ELISA; details: both partners purified
[3] = biological target: SARS-CoV-2 S-dTM (soluble spike protein residues 1–1206 of wildtype WA-1 strain) (SARS-CoV-2 WA-1, UniProt P0DTC2); test: ELISA; details: both partners purified
[4] = biological target: T1, SARS-CoV-2 S1-short (spike residues 1–670) (SARS-CoV-2, UniProt P0DTC2); test: ELISA; details: both partners purified
T1 construct: also called S1-short1

[5] = biological target: SARS-CoV-2 S1R (spike residues 1–537) (SARS-CoV-2, UniProt P0DTC2); test: ELISA; details: both partners purified
[6] = biological target: SARS-CoV-2 spike receptor-binding domain (RBD) (SARS-CoV-2, UniProt P0DTC2); test: ELISA; details: both partners purified
[7] = biological target: SARS-CoV-2 spike N-terminal domain (NTD) (SARS-CoV-2, WA-1 / Wuhan-Hu-1, UniProt P0DTC2); test: ELISA; details: both partners purified
[8] = biological target: T2, SARS-CoV-2 full-length spike, expressed on the cell surface (SARS-CoV-2 WA-1 (GenBank QHD43416.1), UniProt P0DTC2); test: flow cytometry on cells; details: one partner purified
T2 construct: also called SARS-CoV-2 spike; WA-1 spike; source: Expi-293 cells, transiently transfected, on the cell surface

[9] = biological target: T3, MERS-CoV full-length spike, expressed on the cell surface (MERS-CoV EMC/2012 (GenBank AFS88936), UniProt K0BRG7); test: flow cytometry on cells; details: one partner purified
T3 construct: also called MERS-CoV spike; MERS-CoV EMC

[10] = biological target: T4, hCoV-HKU1 full-length spike, expressed on the cell surface (hCoV-HKU1 isolate N1 (AAT98580.1), UniProt Q5MQD0); test: flow cytometry on cells; details: one partner purified
T4 construct: also called hCoV-HKU1 spike; source: Expi-293 cells, transiently transfected, on the cell surface

[11] = biological target: T5, hCoV-OC43 full-length spike, expressed on the cell surface (hCoV-OC43 (AAT84354.1), UniProt P36334); test: flow cytometry on cells; details: one partner purified
T5 construct: also called hCoV-OC43 spike; source: Expi-293 cells, transiently transfected, on the cell surface

[12] = biological target: T6, SARS-CoV-2 spike S2 subunit (SARS-CoV-2, UniProt P0DTC2); test: far-Western, overlay or dot blot; details: both partners purified
T6 construct: also called S2 domain

[13] = biological target: T7, SARS-CoV spike peptide #154, PELDSFKEELDKYFKNH (SARS-CoV residues 1125–1141); corresponding to SARS-CoV-2 … (SARS-CoV, residues 1125-1141); test: far-Western, overlay or dot blot; details: both partners purified
T7 construct: also called 17-residue peptide
T7 chain: PELDSFKEELDKYFKNH

[14] = biological target: T6, SARS-CoV-2 spike S2 subunit; test: negative-stain EM; details: both partners purified

| Binder | binding result [1] | binding result [2] | binding result [3] | binding result [4] | binding result [5] | binding result [6] | binding result [7] | binding result [8] | binding result [9] | binding result [10] | binding result [11] | binding result [12] | binding result [13] | binding result [14] |
| --- | --- | --- | --- | --- | --- | --- | --- | --- | --- | --- | --- | --- | --- | --- |
| B1 | binds | binds | binds | no binding | no binding | no binding | no binding | binds | binds | binds | binds | binds | binds |  |
| B2 |  |  |  |  |  |  |  |  |  |  |  |  |  | binds |

Reference: publication doi:10.1101/2022.01.25.477770 (bioRxiv, 2022)
